# Test results reported in patent publication US20030215899A1, “Reversible oxidation of protein tyrosine phosphatases” (CEPTYR, Inc., priority 2002, published 2003).
# Target: PDGFR (ligand-activated, tyrosine phosphorylated) (rat (endogenous protein of Rat-1 fibroblasts)) (UniProt Q05030)
# Assay: preliminary studies in ligand-stimulated Rat-1 cells; method not stated
# PDGFR (ligand-activated, tyrosine phosphorylated) (rat (endogenous protein of Rat-1 fibroblasts)), sequence (Q05030 32-1097 limits assumed): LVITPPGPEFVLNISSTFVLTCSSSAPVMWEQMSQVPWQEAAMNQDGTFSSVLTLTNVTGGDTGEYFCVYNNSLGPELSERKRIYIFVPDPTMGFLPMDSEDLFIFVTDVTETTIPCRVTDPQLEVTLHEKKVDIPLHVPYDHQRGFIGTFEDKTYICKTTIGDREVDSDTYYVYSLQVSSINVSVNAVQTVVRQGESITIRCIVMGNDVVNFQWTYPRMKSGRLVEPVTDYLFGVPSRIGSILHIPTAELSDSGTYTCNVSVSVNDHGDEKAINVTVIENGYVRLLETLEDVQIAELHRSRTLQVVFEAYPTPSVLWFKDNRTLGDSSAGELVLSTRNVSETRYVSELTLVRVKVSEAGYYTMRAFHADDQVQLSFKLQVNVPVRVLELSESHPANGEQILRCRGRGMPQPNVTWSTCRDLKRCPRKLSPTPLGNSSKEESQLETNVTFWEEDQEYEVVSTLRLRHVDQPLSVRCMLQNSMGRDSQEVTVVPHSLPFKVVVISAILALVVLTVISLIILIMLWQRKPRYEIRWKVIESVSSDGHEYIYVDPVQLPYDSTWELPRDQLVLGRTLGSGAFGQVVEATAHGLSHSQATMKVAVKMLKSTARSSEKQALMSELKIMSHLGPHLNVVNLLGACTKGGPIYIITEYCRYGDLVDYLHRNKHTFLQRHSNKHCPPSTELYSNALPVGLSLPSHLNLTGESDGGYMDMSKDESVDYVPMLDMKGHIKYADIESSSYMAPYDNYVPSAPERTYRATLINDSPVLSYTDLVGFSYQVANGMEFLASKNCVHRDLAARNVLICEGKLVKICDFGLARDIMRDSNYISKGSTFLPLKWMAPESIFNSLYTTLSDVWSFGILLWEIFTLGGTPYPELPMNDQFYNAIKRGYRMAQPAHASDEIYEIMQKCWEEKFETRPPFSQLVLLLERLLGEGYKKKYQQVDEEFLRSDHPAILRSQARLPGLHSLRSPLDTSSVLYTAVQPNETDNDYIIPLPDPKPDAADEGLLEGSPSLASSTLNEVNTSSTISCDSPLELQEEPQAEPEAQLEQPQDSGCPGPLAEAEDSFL
substance,measurement,value
SHP-2 (from UniProt P41499 2-593) (enzyme),percent of the total population of SHP-2 recruited into a complex,10%
